Test results as given in patent US20140072613A1 (published 2014).

T1: NLK(h) (human, UniProt Q9UBE8 1-527, limits assumed)
T1 sequence (looked up): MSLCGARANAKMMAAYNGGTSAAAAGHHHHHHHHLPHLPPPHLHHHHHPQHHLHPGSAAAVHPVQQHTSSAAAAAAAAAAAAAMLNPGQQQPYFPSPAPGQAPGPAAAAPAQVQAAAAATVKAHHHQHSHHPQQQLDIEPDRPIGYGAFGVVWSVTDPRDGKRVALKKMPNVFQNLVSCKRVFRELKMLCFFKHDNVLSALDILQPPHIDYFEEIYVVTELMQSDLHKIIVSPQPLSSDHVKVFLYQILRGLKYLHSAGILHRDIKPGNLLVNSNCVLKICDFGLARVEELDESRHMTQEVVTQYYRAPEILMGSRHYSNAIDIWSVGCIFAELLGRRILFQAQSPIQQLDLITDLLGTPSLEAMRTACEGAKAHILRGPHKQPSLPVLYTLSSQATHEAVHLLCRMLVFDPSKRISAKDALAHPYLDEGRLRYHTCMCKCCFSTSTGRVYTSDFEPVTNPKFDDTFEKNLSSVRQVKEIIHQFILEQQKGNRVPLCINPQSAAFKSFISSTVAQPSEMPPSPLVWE

T2: TAO3(h) (human, UniProt Q9H2K8 1-314, limits assumed)
T2 sequence (looked up): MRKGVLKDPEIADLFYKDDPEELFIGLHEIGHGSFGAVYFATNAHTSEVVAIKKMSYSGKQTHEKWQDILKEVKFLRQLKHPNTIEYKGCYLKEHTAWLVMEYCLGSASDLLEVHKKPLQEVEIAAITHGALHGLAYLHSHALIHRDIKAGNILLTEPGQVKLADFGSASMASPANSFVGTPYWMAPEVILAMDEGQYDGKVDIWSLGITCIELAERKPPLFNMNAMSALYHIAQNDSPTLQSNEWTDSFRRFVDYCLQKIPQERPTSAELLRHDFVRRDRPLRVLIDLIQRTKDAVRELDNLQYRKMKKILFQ

T3: Txk(h) (human, UniProt P42681 1-527, limits assumed)
T3 sequence (looked up): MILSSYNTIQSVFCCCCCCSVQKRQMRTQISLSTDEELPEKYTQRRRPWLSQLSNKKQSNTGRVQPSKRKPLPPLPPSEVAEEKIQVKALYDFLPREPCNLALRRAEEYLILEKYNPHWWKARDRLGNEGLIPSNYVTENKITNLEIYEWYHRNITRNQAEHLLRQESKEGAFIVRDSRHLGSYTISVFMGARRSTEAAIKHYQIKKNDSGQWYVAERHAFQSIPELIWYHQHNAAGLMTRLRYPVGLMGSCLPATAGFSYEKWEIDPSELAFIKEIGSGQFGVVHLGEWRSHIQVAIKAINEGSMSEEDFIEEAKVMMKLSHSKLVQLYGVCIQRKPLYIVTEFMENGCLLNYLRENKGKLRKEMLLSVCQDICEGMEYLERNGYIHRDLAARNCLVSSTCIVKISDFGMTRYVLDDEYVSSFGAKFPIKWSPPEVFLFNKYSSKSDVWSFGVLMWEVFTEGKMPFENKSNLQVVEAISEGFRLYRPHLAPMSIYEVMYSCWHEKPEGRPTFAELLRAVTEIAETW

T4: IKKα(h) (human, UniProt O15111 1-745)
T4 sequence (looked up): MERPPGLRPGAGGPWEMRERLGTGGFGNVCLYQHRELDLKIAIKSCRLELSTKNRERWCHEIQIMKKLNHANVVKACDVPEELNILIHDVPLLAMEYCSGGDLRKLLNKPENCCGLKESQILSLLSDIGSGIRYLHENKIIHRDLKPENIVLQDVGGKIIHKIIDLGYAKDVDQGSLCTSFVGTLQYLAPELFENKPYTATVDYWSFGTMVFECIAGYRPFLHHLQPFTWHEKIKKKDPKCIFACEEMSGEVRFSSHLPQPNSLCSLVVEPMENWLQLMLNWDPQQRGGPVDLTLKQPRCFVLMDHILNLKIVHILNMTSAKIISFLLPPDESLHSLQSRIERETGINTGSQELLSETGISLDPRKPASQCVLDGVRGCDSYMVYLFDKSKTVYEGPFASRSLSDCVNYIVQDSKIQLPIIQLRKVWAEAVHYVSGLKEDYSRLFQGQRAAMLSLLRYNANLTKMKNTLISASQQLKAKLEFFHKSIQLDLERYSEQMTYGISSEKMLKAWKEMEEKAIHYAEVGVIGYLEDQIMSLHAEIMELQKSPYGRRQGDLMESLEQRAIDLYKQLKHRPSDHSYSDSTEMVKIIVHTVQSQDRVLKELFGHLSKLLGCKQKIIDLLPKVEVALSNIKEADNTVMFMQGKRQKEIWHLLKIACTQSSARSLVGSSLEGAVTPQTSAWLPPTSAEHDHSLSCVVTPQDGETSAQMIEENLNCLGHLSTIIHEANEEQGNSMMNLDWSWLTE

B1: MMI-0400 (peptide)
peptide: KAFAKLAARLYRKALARQLGVAA
B2: MMI-0300 (peptide)
peptide: FAKLAARLYRKALARQLGVAA

Tests used:
Test in all cases: cell-based or functional assay
Rsk2(h) = Rsk2(h) (human, UniProt P51812 1-740)
KDR(h) = KDR(h) (human, UniProt P35968 790-1356, limits assumed)
NLK(h) = molecular target: T1, NLK(h)
Met(D1246N)(h) = Met(D1246N)(h) (human, UniProt P08581-2 974-1408, limits assumed)
TAO3(h) = molecular target: T2, TAO3(h)
Txk(h) = molecular target: T3, Txk(h)
IKKα(h) = molecular target: T4, IKKα(h)
CK1γ3(h) = CK1γ3(h) (human, UniProt Q9Y6M4 1-447)
Pyk2 (h) = Pyk2 (h) (human, UniProt Q14289 1-1009, limits assumed)
FGFR1(V561M)(h) = FGFR1(V561M)(h) (human, UniProt P11362 456-765, limits assumed)
ROCK-I(h) = ROCK-I(h) (human, UniProt Q13464 17-535, limits assumed)
PAK3(h) = PAK3(h) (human, UniProt O75914 1-559, limits assumed)
EGFR(h) = EGFR(h) (human, UniProt P00533 696-1210, limits assumed)
CK2(h) = CK2(h) (human)
Aurora-B(h) = Aurora-B(h) (human, UniProt Q96GD4 1-344)
Sequence of Aurora-B(h) (Q96GD4 whole entry): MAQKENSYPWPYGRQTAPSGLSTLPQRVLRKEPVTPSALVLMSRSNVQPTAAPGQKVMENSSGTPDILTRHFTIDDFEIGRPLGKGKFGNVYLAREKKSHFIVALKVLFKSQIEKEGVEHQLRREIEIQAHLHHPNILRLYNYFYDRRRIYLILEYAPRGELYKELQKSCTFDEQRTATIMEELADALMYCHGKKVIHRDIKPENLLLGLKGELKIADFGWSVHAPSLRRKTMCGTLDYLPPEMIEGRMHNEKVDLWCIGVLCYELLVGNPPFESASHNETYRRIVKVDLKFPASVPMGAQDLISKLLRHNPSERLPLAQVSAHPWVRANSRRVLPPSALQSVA

Sequence of ROCK-I(h) (Q13464 17-535 limits assumed): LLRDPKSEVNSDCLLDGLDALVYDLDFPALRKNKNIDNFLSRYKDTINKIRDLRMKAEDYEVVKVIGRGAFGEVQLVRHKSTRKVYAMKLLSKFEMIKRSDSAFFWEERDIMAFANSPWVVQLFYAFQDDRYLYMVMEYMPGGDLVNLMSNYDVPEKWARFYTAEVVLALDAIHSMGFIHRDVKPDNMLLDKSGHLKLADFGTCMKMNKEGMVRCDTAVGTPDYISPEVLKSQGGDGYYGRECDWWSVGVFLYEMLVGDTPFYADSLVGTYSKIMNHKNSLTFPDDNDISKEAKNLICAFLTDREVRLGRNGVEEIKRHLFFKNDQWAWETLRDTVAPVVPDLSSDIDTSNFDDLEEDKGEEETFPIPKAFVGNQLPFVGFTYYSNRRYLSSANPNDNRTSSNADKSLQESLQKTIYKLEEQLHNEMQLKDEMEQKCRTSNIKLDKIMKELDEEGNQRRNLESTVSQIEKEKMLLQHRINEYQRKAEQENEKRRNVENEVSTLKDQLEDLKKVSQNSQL
Sequence of CK1γ3(h) (Q9Y6M4 whole entry): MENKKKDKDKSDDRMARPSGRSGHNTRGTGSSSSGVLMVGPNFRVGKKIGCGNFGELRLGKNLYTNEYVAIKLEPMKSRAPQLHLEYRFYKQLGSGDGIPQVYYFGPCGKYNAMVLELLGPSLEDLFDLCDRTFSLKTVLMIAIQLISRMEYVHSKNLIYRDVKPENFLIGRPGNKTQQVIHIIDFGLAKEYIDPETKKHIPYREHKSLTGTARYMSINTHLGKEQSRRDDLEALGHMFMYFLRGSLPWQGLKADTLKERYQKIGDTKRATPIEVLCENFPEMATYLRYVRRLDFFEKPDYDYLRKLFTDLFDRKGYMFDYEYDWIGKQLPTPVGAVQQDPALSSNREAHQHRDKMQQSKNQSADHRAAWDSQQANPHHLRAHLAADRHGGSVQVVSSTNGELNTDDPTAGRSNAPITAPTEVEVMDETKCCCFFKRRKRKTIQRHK
Sequence of PAK3(h) (O75914 whole entry): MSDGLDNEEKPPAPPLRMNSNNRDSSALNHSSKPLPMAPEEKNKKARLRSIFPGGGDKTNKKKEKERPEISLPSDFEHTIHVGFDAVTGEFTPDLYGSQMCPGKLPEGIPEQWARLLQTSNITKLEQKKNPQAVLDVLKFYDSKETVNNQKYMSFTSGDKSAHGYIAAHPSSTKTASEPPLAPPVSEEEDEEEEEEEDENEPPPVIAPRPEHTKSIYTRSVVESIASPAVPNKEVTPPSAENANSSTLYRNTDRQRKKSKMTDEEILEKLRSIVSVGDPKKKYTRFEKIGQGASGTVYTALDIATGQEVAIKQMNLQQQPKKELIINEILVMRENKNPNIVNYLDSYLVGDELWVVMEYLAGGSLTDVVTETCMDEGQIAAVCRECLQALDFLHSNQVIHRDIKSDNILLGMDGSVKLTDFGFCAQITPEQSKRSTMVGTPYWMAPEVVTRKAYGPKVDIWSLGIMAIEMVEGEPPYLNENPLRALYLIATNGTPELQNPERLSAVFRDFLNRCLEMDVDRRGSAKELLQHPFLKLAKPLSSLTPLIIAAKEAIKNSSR
Sequence of Pyk2 (h) (Q14289 whole entry): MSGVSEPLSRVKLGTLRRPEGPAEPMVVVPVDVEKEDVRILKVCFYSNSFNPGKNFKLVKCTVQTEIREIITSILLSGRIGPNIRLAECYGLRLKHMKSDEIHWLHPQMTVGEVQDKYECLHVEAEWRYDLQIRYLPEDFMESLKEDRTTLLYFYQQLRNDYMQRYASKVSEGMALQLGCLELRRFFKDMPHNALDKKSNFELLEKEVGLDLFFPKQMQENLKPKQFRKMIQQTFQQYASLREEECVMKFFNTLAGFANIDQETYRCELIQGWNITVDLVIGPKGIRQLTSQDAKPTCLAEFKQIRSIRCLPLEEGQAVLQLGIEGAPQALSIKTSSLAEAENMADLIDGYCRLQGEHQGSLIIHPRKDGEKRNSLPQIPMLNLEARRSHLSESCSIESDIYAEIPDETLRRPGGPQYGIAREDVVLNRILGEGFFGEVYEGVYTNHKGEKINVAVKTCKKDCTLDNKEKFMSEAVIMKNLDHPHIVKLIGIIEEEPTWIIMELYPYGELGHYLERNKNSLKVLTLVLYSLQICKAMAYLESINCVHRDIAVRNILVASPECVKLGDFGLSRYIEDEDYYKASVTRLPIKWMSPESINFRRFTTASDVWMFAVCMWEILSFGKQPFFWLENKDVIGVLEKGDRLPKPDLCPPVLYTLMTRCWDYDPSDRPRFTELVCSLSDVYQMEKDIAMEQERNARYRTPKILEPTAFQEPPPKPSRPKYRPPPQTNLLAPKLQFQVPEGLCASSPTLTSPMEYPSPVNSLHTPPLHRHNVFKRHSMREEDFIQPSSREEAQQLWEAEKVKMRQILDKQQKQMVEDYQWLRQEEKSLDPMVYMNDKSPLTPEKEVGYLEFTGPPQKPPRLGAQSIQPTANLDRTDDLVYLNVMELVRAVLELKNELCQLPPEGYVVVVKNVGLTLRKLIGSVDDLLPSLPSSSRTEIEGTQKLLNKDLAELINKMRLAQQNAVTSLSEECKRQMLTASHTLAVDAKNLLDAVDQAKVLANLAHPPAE
Sequence of FGFR1(V561M)(h) (P11362 456-765 V561M limits assumed): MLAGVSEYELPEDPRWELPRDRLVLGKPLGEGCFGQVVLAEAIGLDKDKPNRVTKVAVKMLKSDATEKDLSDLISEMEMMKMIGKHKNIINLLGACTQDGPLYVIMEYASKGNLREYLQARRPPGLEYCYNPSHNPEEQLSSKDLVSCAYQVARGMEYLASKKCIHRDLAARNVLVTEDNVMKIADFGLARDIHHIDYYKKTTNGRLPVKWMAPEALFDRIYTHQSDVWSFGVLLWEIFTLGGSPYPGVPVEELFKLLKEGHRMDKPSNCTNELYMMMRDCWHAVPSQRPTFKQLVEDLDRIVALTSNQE
Sequence of KDR(h) (P35968 790-1356 limits assumed): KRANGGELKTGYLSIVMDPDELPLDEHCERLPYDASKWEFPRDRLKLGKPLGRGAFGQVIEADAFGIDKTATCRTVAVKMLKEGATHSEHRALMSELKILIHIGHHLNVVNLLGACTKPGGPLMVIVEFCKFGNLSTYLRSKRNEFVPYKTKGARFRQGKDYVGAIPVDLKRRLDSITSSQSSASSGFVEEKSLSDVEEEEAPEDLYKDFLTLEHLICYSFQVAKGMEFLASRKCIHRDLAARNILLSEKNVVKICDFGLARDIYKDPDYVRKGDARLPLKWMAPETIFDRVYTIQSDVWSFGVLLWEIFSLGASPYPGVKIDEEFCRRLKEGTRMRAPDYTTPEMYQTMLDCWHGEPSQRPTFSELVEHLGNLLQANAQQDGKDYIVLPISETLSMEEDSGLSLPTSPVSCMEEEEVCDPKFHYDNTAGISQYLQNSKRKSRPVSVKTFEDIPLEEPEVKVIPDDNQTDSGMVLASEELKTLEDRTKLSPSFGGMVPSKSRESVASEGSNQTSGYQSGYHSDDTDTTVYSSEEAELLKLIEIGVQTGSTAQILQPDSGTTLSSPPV
Sequence of Rsk2(h) (P51812 whole entry): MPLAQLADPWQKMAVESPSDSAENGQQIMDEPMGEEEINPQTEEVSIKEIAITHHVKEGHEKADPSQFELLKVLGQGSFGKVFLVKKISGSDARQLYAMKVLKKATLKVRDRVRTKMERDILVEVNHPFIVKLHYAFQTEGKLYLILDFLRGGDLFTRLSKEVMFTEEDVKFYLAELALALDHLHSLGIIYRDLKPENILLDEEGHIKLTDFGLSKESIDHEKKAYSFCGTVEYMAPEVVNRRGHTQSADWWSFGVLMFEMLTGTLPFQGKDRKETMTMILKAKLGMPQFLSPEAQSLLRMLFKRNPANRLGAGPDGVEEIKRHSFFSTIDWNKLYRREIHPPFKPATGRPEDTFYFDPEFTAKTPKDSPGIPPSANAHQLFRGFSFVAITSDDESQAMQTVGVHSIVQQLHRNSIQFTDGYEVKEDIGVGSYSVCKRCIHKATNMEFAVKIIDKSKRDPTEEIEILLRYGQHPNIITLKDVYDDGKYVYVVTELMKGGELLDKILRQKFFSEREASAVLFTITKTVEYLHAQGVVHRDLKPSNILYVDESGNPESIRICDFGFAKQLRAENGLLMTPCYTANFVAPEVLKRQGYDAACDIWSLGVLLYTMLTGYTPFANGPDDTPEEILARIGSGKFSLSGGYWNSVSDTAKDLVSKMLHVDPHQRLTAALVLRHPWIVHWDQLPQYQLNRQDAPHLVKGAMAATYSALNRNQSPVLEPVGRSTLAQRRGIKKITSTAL

Binder	% activity, 100 µM (Rsk2(h))	% activity, 100 µM (KDR(h))	% activity, 100 µM (NLK(h))	% activity, 100 µM (Met(D1246N)(h))	% activity, 100 µM (TAO3(h))	% activity, 100 µM (Txk(h))	% activity, 100 µM (IKKα(h))	% activity, 100 µM (CK1γ3(h))	% activity, 100 µM (Pyk2 (h))	% activity, 100 µM (FGFR1(V561M)(h))	% activity, 100 µM (ROCK-I(h))	% activity, 100 µM (PAK3(h))	% activity, 100 µM (EGFR(h))	% activity, 100 µM (CK2(h))	% activity, 100 µM (Aurora-B(h))
B1	38%	94%	90%	31%	67%	37%	87%	115%	34%	74%	73%	121%	16%	101%	150%
B2	51%	101%	87%	82%	77%	48%	93%	125%	47%	74%	79%	140%	21%	90%	128%
